Here are results for one molecule from paper PMC6779467, “Cytoplasmic protein misfolding titrates Hsp70 to activate nuclear Hsf1”.

For this data set, the target named is Hsf1-StrepTag II;Ssa1 (Hsp70) (Saccharomyces cerevisiae;Saccharomyces …, UniProt P10961;P10591 1-833;1-642, |). Kind of data set: EMSA; 0.25 uM complex, 0.05 uM probe; 10 mM Tris-HCl pH 7.5, 50 mM KCl, 2.5 mM DTT, 0.25% Tween 20, 20 min at 20 C; 6% DNA retardation gel in TBE (modified: 1 mM MgCl2, no DTT listed, 0.7% agarose). The settings on record: protein: recombinant;recombinant; tags: C-terminal StrepTag II;6xHis-SUMO removed by Ulp1; chain copies: 3;1; blunt.
Hsf1-StrepTag II;Ssa1 (Hsp70), sequence (P10961 whole entry, chain 1 of 2): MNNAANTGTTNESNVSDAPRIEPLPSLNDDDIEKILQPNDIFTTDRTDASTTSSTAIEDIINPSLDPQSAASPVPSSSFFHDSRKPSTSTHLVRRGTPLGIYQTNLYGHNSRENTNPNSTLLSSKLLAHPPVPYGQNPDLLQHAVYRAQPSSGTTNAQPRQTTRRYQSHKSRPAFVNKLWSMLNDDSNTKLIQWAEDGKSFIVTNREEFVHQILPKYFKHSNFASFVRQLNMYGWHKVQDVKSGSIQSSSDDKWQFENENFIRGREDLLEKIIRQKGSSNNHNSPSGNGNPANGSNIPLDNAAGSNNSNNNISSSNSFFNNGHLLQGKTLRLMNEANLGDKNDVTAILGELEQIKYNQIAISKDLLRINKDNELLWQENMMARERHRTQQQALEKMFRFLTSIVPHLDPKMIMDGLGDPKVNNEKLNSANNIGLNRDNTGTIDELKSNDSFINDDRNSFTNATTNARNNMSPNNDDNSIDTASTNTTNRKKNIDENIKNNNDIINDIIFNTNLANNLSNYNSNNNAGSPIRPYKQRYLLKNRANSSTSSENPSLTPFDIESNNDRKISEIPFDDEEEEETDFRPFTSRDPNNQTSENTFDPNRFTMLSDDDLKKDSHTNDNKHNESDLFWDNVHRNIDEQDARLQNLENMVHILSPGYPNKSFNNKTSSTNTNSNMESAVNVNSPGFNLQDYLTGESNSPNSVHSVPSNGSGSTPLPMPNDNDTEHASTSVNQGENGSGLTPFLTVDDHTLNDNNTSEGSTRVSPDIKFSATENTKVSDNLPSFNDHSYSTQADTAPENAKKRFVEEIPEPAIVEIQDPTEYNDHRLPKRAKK
Hsf1-StrepTag II;Ssa1 (Hsp70), sequence (P10591 whole entry, chain 2 of 2): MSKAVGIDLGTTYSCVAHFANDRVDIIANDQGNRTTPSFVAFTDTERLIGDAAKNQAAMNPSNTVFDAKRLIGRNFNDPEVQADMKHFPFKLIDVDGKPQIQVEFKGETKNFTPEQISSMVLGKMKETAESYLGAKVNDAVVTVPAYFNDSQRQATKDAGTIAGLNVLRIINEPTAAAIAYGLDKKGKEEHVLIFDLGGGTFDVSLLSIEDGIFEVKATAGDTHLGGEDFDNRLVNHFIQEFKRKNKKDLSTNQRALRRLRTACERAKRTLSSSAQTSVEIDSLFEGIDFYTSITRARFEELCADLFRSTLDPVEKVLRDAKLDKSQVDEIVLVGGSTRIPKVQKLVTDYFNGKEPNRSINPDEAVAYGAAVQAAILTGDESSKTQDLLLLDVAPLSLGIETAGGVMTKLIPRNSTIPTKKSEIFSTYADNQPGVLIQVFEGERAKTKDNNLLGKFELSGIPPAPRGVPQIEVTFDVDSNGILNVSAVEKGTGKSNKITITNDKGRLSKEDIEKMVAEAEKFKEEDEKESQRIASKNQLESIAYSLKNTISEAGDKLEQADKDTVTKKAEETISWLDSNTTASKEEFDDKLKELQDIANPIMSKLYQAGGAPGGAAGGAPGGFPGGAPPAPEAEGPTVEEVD

B1: HSE-DY682 (dsDNA)
DNA 1: TCGATTTTCCAGAACGTTCCATCGGC
DNA 2: GCCGATGGAACGTTCTGGAAAATCGA
Turning to B1, the binding result was “binds”.
